According to patent US20030064071A1:

How the values were obtained:
DC-SIGN (human) [1] = target: DC-SIGN (human) (UniProt Q9NNX6); assay: flow cytometry, immature DC day 7 (endogenous DC-SIGN)
DC-SIGN (human) [2] = target: DC-SIGN (human) (UniProt Q9NNX6); assay: flow cytometry, mature DC day 9, LPS-matured (endogenous DC-SIGN)
DC-SIGN (human) [3] = target: DC-SIGN (human) (UniProt Q9NNX6); assay: flow cytometry, mature DC day 9, TNFα-matured (endogenous DC-SIGN)
DC-SIGN (human) [4] = target: DC-SIGN (human) (UniProt Q9NNX6); assay: flow cytometry, mature DC day 9, MCM/PGE2-matured (endogenous DC-SIGN)
DC-SIGN (human) [5] = target: DC-SIGN (human) (UniProt Q9NNX6); assay: cell-based or functional assay

Chain of DC-SIGN (human) (Q9NNX6 whole entry): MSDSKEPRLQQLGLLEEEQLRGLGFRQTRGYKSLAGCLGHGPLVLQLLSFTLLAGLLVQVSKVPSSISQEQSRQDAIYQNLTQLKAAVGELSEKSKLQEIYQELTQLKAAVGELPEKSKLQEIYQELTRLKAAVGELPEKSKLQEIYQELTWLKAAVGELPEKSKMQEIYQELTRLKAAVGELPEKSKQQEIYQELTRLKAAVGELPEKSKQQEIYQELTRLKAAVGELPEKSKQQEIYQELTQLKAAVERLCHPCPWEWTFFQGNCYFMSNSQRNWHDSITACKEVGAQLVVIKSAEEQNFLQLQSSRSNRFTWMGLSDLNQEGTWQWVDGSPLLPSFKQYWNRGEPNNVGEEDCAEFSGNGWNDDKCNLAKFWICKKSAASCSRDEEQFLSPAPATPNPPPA

mean fluorescence of staining (mean fluorescence) (DC-SIGN (human) [1])	mean fluorescence of staining (mean fluorescence) (DC-SIGN (human) [2])	mean fluorescence of staining (mean fluorescence) (DC-SIGN (human) [3])	mean fluorescence of staining (mean fluorescence) (DC-SIGN (human) [4])	Substance	luciferase activity (unactivated T cells, THP-SIGN cells relative to THP cells) (DC-SIGN (human) [5]) [fold]
980	489	420	445	AZN-D1 (antibody)	
				HxB2 envelope (from UniProt P04578 33-856)	20
